The values below come from patent US20230226096A1 (Orna Therapeutics, Inc., priority 2020, published 2023).

The test system of the data set is HEK293 cells. It counts as cell-based, human. The following applies: luminescence from secreted Gluc in supernatant 24 hours after transfection of HEK293 cells; circular RNA encoding Gluc with the named IRES (UTR truncated to 675 nt).

B1: Megirivirus E (nucleic acid)
DNA: GCTTGGCAACCTCATATCGTTACTCTGCCGACCAGTCTGGGTCGTGTGGCCACACAATGGGATTCGTTCTGTTGTGTAGAGTCACATGGCATTACTGGGCTGATCGGTGGGGATCCGTTGCCACCCCTAAACCCTTACATTTACTGGACTGCTTTTCTTGGCCCCGGAATGATTCGCTCACCCGCGATGAGGACTGTTGTTCTTATTATGGCAGGATTACGCGTCTGGTCCGCGTAAGGACTAATTCCTATGTTTATACGTTACTACCTTGTTCTGAACGGTGGGCGCCACCCCGCCTAGTAGGATCCTGGCTTATCGTGTAGACCTCTAGGGACCACATTAGCTAGAGTGTAGGCTGCTATGGATGGAGTAGTGACCCCTTTTTGGGTATCACTCTCTAAGACTCCGGAATGTGTCATAGTACGCTGGAAATCCTTACTTGTTTTTCCATGAGGGGGAGGTGGTGCTGAAATATTGCAAGCCACCCCTCGGTTAAAACAGTTTGGTGCCGCTTATGCCATATTACCGCCCCTTGTAGTTGGGCTGTTTTTGCAGCTCCGGGTTAGTAGAGTACCATAGTGGACGCGGTGTTGGGAATCACCGCCTTGGCTGCACACTGCTTGATAGAGCTGCGGCTGGTCAAGCTAATTGTGGTATAACCAGTTGATTTGGCAT
On to B1, for which the Expression worked out at 1.10E+07.

B2: Human rhinovirus 1 (nucleic acid, listed as Rhinovirus sp.)
DNA: TTAAAACTGGGTGTGGGTTGTTCCCACCCACACCACCCAATGGGTGTTGTACTCTGTTATTCCGGTAACTTTGTACGCCAGTTTTTCCCTCCCCTCCCCATCCTTTTACGTAACTTAGAAGTTTTAAATACAAGACCAATAGTAGGCAACTCTCCAGGTTGTCTAAGGTCAAGCACTTCTGTTTCCCCGGTTGATGTTGATATGCTCCAACAGGGCAAAAACAACAGATACCGTTATCCGCAAAGTGCCTACACAGAGCTTAGTAGGATTCTGAAAGATCTTTGGTTGGTCGTTCAGCTGCATACCCAGCAGTAGACCTTGCAGATGAGGCTGGACATTCCCCACTGGTAACAGTGGTCCAGCCTGCGTGGCTGCCTGCGCACCTCTCATGAGGTGTGAAGCCAAAGATCGGACAGGGTGTGAAGAGCCGCGTGTGCTCACTTTGAGTCCTCCGGCCCCTGAATGCGGCTAACCTTAAACCTGCAGCCATGGCTCATAAGCCAATGAGTTTATGGTCGTAACGAGTAATTGCGGGATGGGACCGACTACTTTGGGTGTCCGTGTTTCACTTTTTCCTTTATTAATTGCTTATGGTGACAATATATATATTGATATATATTGGCATC
Turning to B2, the Expression was found to be 7.40E+07.

B3: Farmington virus (nucleic acid)
DNA: ACGACGCATAAGCAGAGAAACATAAGAGACTATGTTCATAGTCACCCTGTATTCATTATTGACTTTTATGACCTATTATTAGACCCTTCACGGGTAAATCCTTCTCCTTGCAGTTCTCGCCAAGTACCTCCAAAGTCAGAACG
On to B3, for which the Expression came to 1.22E+05.

B4: Feline infectious peritonitis virus (nucleic acid)
DNA: ACTTTTAAAGTAAAGTGAGTGTAGCGTGGCTATAACTCTTCTTTTACTTTAACTAGCCTTGTGCTAGATTTGTCTTCGGACACCAACTCGAACTAAACGAAATATTTGTCTCTCTATGAAACCATAGAAGACAAGCGTTGATTATTTCACCAGTTTGGCAATCACTCCTAGGAACGGGGTTGAGAGAACGGCGCACCAGGGTTCCGTCCCTGTTTGGTAAGTCGTCTAGTATTAGCTGCGGCGGTTCCGCCCGTCGTAGTTGGGTAGACCGGGTTCCGTCCTGTGATCTCCCTCGCCGGCCGCCAGGAGA
Molecule B4 showed an Expression of 1.35E+05.

B5: Hubei zhaovirus-like virus 1 (nucleic acid)
DNA: GTGCAGGATGGCCTTTCCCATCTTAAGTGGTTTGTAGGATTTCGTGGGTCCATACCCCCCGATTTCTTGGTACGTATTCCATGCACGGAGAATACGACCAAAACTCTTATTTCAAAAAATATTATTTTTTACTCTTGTGGGCTGAGTGCGACCCACCAGTTCCAGCTTAGCAACCTGGAAGTTGTTGGAGATTTATGGAACCAAATTACACATGCGTGGAGTGCCGCCACTCCGTATCTGTTCACTCATTACGCGATTAAGTTCTGCGACGAGACGAGCGAA
For B5, the Expression is 1.03E+05.

B6: Human TMEV-like cardiovirus (nucleic acid, listed as Cardiovirus sp.)
DNA: TCCGACGTGGTTGGAATTAACATCTTTTCCGACGAAAGTGCTATTATGCCTCCCCGATTGTGTGATGCTTTCTGCCCTGCTGGGCGGAGCGTCCTCGGGTTGAGAAACCTTGAATCTTTTCCTTTGGAGCCTTGGCTCCCCCGGTCTAAGCCGCTTGGAATATGACAGGGTTATTTTCCAAACTCTTTATTTCTACTTTCATGGGTTCTATCCATGAAAAGGGTATGTGTTGCCCCTTCCTTCTTTGGAGAATCTGCGCGGCGGTCTTTCCGTCTCTCAACAGGCGTGGATGCAACATGCCGGAAACGGTGAAGAAAACAGTTTTCTGTGGAAATTTAGAGTGGACATCGAAACAGCTGTAGCGACCTCACAGTAGCAGCGGATTCCCCTCTTGGCGACAAGAGCCTCTGCGGCCAAAAGCCCCGTGGATAAGATCCACTGCTGTGAGCGGTGCAACCCCAGCACCCTGGTTCGATGGCCATTCTCTATGGAACCAGAAAATGGTTTTCTCAAGCCCTCCGGTAGAGAAGCCAAGAATGTCCTGAAGGTACCCCGCGCGCGGGATCTGATCAGGAGACCAATTGGCAGTGCTTTACGCTGCCACTTTGGTTTAAAAACTGTCACAGCTTCTCCAAACCAAGTGGTCTTGGTTTTCCAATTTTGTTGACTGACAAT
B6 showed an Expression of 4.48E+07.

B7: Avian infectious bronchitis virus (nucleic acid)
DNA: ACTTAAGATAGATATTAATATATATCTATTACACTAGCCTTGCGCTAGATTTTTAACTTAACAAAACGGACTTAAATACCTACAGCTGGTCCTCATAGGTGTTCCATTGCAGTGCACTTTAGTGCCCTGGATGGCACCTGGCCACCTGTCAGGTTTTTGTTATTAAAATCTTATTGTTGCTGGTATCACTGCTTGTTTTGCCGTGTCTCACTTTATACATCTGTTGCTTGGGCTACCTAGTGTCCAGCGTCCTACGGGCGTCGTGGCTGGTTCGAGTGCGAGGAACCTCTGGTTCATCTAGCGGTAGGCGGGTGTGTGGAAGTAGCACTTCAGACGTACCGGTTCTGTTGTGTGAAATACGGGGTCACCTCCCCCCACATACCTCTAAGGGCTTTTGAGCCTAGCGTTGGGCTACGTTCTCGCATAAGGTCGGCTATACGACGTTTGTAGGGGGTAGTGCCAAACAACCCCTGAGGTGACAGGTTCTGGTGGTGTTTAGTGAGCAGACATACAATAGACAGTGACAAC
As to B7, the Expression came out at 2.84E+05.

B8: Goat torovirus (nucleic acid, listed as Torovirus sp.)
DNA: GTACTTACAAGCGGGTTAAACCGCCCTCCGGAACGGTTACAACCCCCTCCCGAACGTGCGCTTGACGTGACTGGTTCTCAGTCTGGCTTTCTGAGAAATACTCCAGGGTTGTATCCCACCATCTTGACCTCTGGTCATTTTGGTAACACCATAACCAAACAAACTCTACACACCTAACCCACCTCCAGCTTGCTGCAGGCCTTTTGGACTAAACGGGTTTAGGTGTTTTGTGACCAACTCGTCTACCCACCTCCAGTTTTACTGCAGGCCTTTTTGGACTAAACGGCTTTAGACTTTTGTGGTTAGTTTTTAACTACCCACTGTTTAGCCGCCAACCTGATTTTCATTGTTGTAAAATTTTGTGTTTATACACTATTTTCATACGGTTGGCAGTTTGTTTGGTTGTTTGCACAGTTTTTGTTGATACCAATTTTTACTGTGCTTTTAGTGTATTCTGCTAAGGCTGTATTTTACATACTTAGTTTGGTTGAAGCAATTTTTACAACATTTATATTGTTTTTGATTTCTAAGGTAAAGAGTCTTAGGAAACACCATAGACGCCATTCTTGTGGTGTCTAGTTCCAACTAATCTGGCAAACAAGTACCAAGTCATTGACTCACTTTGGAGTGAGACTTACGAGTACCAATTTGCCTATTTCGGACATCCATATAAAG
The molecule B8 came in with an Expression of 1.19E+05.

B9: EV22 (nucleic acid)
DNA: CCTTATAACCCGACTTGCTGAGCTTCTATAGGAAAAAACCCTTTCCCAGCCTTGGGGTGGCTGGTCAATAAAAACCCCCATAGTAACCAACACCTAAGACAATTTGATCAACCCTATGCCTGGTCCCCACTATTCGAAGGCAACTTGCAATAAGAAGAGTGGAACAAGGATGCTTAAAGCATAGTGTAAATGATCTTTTCTAACCTGTATTATGTACAGGGTGGCAGATGGCGTGCCATAAATCTATTAGTGGGATACCACGCTTGTGGACCTTATGCCCACACAGCCATCCTCTAGTAAGTTTGTAAAATGTCTGGTGAGATGTGGGAACTTATTGGAAACAACAATTTGCTTAATAGCATCCTAGTGCCAGCGGAACAACATCTGGTAACAGATGCCTCTGGGGCCAAAAGCCAAGGTTTGACAGACCCATTAGGATTGGTTTCAAAACCTGAATTGTTGTGGAAGATATTCAGTACCTATCAATCTGGTAGTGGTGCAAACACTAGTTGTAAGGCCCACGAAGGATGCCCAGAAGGTACCCGCAGGTAACAAGAGACACTGTGGATCTGATCTGGGGCCAACTACCTCTATCAGGTGAGTTAGTTAAAAAACGTCTAGTGGGCCAAACCCAGGGGGGATCCCTGGTTTCCTTTTATTGTTAATATTGACATT
On to B9, for which the Expression was 1.95E+07.

B10: Grapevine associated narnavirus-1 (nucleic acid, listed as Narnavirus sp.)
DNA: GCCCGGGGGGTGCAGTCCTGTGAAAGGGTCTGCACCATACTATATATGTATATGATTACATCCCAAAAGGCGACTTCGTTCAGGTTTTAAATCTGACGTAGGTCCAGTAAATAAGCATGTCAAAACATGTAAGTTTATCCTGTAATCTACTCTCATAAGATGAGATAAGATGATATTGCAGTTCCCATGTAAATAAATCCATTATGAATTCATTCATATAAGGTAGAAGTGGTAACTATGGTTGAAACATTAATATAAAACGGTCATTTTGCATGAACGTCATTAAGGAACTGGCATACCAATGTCTATTTAGTGACTATGATATTTAGAGTATCCCTTATATTAATTAACAATTATTCCTTTTAGCATATCATCCGACAACAAATTTTAAAAGAAGAAATATTACTCATTAAAA
With B10, the Expression is reported as 1.30E+05.
